Among the data in patent US20150065440A1, “SULFATED OLIGOSACCHARIDE DERIVATIVES” (Progen Pharmaceuticals Limited, priority 2007, published 2015) are Km values, retold here.

Substrate in the data set: CO[C@H]1O[C@H](COS(=O)(=O)O)[C@@H](O[C@@H]2O[C@@H](C(=O)O)[C@@H](O[C@H]3O[C@H](COS(=O)(=O)O)[C@@H](O[C@@H]4O[C@H](C(=O)O)[C@@H](O[C@H]5O[C@H](COS(=O)(=O)O)[C@@H](O)[C@H](O)[C@H]5NS(=O)(=O)O)[C@H](O)[C@H]4O)[C@H](OS(=O)(=O)O)[C@H]3NS(=O)(=O)O)[C@H](O)[C@H]2OS(=O)(=O)O)[C@H](O)[C@H]1NS(=O)(=O)O
As to the kind of experiment: purified protein, by the assay type. As to conditions: other: substrate of heparanase; pH 5.0.

B1: recombinant human heparanase (Homo sapiens) (protein)
chain 1: KKFKNSTYSRSSVDVLYTFANCSGLDLIFGLNALLRTADLQWNSSNAQLLLDYCSSKGYNISWELGNEPNSFLKKADIFINGSQLGEDFIQLHKLLRKSTFKNAKLYGPDVGQPRRKTAKMLKSFLKAGGEVIDSVTWHHYYLNGRTATKEDFLNPDVLDIFISSVQKVFQVVESTRPGKKVWLGETSSAYGGGAPLLSDTFAAGFMWLDKLGLSARMGIEVVMRQVFFGAGNYHLVDENFDPLPDYWLSLLFKKLVGTKVLMASVQGSKRRKLRVYLHCTNTDNPRYKEGDLTLYAINLHNVTKYLRLPYPFSNKQVDKYLLRPLGPHGLLSKSVQLNGLTLKMVDDQTLPPLMEKPLRPGSSLGLPAFSYSFFVIRNAKVAACI
chain 2: QDVVDLDFFTQEPLHLVSPSFLSVTIDANLATDPRFLILLGSPKLRTLARGLSPAYLRFGGTKTDFLIFDPKKE
For B1, the Michaelis-Menten constant (Km) stood at 33 ± 6 µM.
